Measured values reported in patent US20220119492A1.

Biological target: T1, human IL-2Rβ (CD122 protein, Fc Tag) (27-239) (human), P14784
T1 chain: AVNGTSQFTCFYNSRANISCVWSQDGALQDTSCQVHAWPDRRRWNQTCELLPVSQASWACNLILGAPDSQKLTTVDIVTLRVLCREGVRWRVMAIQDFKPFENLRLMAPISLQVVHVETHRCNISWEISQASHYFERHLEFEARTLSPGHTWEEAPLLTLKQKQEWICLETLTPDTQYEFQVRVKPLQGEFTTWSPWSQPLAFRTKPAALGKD
Test: competitive binding ELISA (Example 28)

CCYQAMVGDLCDFC (modifications not checked) [IL-2Rβ ligand SEQ ID NO: 83] was tested. Which IC50 did it give?
The IC50 was under 10 µM.
